# ± gives the uncertainty stated by the source.
# B1: Transcriptional regulator ERG, residues 117 to 197; numbered along this chain, P11308 (parent)
# chain: NMTTNERRVIVPADPTLWSTDHVRQWLEWAVKEYGLPDVNILLFQNIDGKELCKMTKDDFQRLTPSYNADILLSHLHYLRE
# Variants of: B1
# Test: abundance fitness (aPCA) (normalised: wild type 0, dead -1); higher = more abundant; growth selection in yeast, the domain comes from the species named
# Settings: Homo sapiens
row,Variant,abundance fitness
1,NMTTNERRVIVPADPTLWSTDHVRQWLEWAVKEYGLPDVNILLFQNIDGKELCKMTEDDFQRLTPSYNADILLSHLHYLRE [K57E],-0.023 ± 0.061
2,NMTTNERRVIVPADPTLWSTDHVRQWLEWAVKEYGLPDVNILLFQNIDGKELCKMTDDDFQRLTPSYNADILLSHLHYLRE [K57D],-0.093 ± 0.095
3,NMTTNERRVIVPADPTLWSTDHVRQWLEWAVKEYGLPDVNILLFQNIDGKELCKMTFDDFQRLTPSYNADILLSHLHYLRE [K57F],-0.15 ± 0.15
4,NMTTNERRVIVPADPTLWSTDHVRQWLEWAVKEYGLPDVNILLFQNIDGKELCKMTADDFQRLTPSYNADILLSHLHYLRE [K57A],0.029 ± 0.055
5,NMTTNERRVIVPADPTLWSTDHVRQWLEWAVKEYGLPDVNILLFQNIDGKELCKMTCDDFQRLTPSYNADILLSHLHYLRE [K57C],-0.264 ± 0.12
6,NMTTNERRVIVPADPTLWSTDHVRQWLEWAVKEYGLPDVNILLFQNIDGKELCKMRKDDFQRLTPSYNADILLSHLHYLRE [T56R],-0.082 ± 0.051
7,NMTTNERRVIVPADPTLWSTDHVRQWLEWAVKEYGLPDVNILLFQNIDGKELCKMGKDDFQRLTPSYNADILLSHLHYLRE [T56G],0.042 ± 0.041
8,NMTTNERRVIVPADPTLWSTDHVRQWLEWAVKEYGLPDVNILLFQNIDGKELCKMDKDDFQRLTPSYNADILLSHLHYLRE [T56D],-0.01 ± 0.081
9,NMTTNERRVIVPADPTLWSTDHVRQWLEWAVKEYGLPDVNILLFQNIDGKELCKMYKDDFQRLTPSYNADILLSHLHYLRE [T56Y],-0.457 ± 0.16
10,NMTTNERRVIVPADPTLWSTDHVRQWLEWAVKEYGLPDVNILLFQNIDGKELCKMKKDDFQRLTPSYNADILLSHLHYLRE [T56K],0.081 ± 0.087
11,NMTTNERRVIVPADPTLWSTDHVRQWLEWAVKEYGLPDVNILLFQNIDGKELCKMPKDDFQRLTPSYNADILLSHLHYLRE [T56P],-0.632 ± 0.2
12,NMTTNERRVIVPADPTLWSTDHVRQWLEWAVKEYGLPDVNILLFQNIDGKELCKMQKDDFQRLTPSYNADILLSHLHYLRE [T56Q],-0.108 ± 0.14
13,NMTTNERRVIVPADPTLWSTDHVRQWLEWAVKEYGLPDVNILLFQNIDGKELCKMEKDDFQRLTPSYNADILLSHLHYLRE [T56E],-0.058 ± 0.07
14,NMTTNERRVIVPADPTLWSTDHVRQWLEWAVKEYGLPDVNILLFQNIDGKELCKMLKDDFQRLTPSYNADILLSHLHYLRE [T56L],-0.265 ± 0.07
15,NMTTNERRVIVPADPTLWSTDHVRQWLEWAVKEYGLPDVNILLFQNIDGKELCKMNKDDFQRLTPSYNADILLSHLHYLRE [T56N],-0.076 ± 0.11
16,NMTTNERRVIVPADPTLWSTDHVRQWLEWAVKEYGLPDVNILLFQNIDGKELCKMCKDDFQRLTPSYNADILLSHLHYLRE [T56C],-0.024 ± 0.17
17,NMTTNERRVIVPADPTLWSTDHVRQWLEWAVKEYGLPDVNILLFQNIDGKELCKMIKDDFQRLTPSYNADILLSHLHYLRE [T56I],-0.236 ± 0.17

row,Variant,abundance fitness
1,NMTTNERRVIVPADPTLWSTDHVRQWLEWAVKEYGLPDVNILLFQNIDGKELCKMAKDDFQRLTPSYNADILLSHLHYLRE [T56A],-0.118 ± 0.077
2,NMTTNERRVIVPADPTLWSTDHVRQWLEWAVKEYGLPDVNILLFQNIDGKELCKMVKDDFQRLTPSYNADILLSHLHYLRE [T56V],-0.066 ± 0.056
3,NMTTNERRVIVPADPTLWSTDHVRQWLEWAVKEYGLPDVNILLFQNIDGKELCKMSKDDFQRLTPSYNADILLSHLHYLRE [T56S],0.077 ± 0.072
4,NMTTNERRVIVPADPTLWSTDHVRQWLEWAVKEYGLPDVNILLFQNIDGKELCKMMKDDFQRLTPSYNADILLSHLHYLRE [T56M],-0.282 ± 0.12
5,NMTTNERRVIVPADPTLWSTDHVRQWLEWAVKEYGLPDVNILLFQNIDGKELCKMHKDDFQRLTPSYNADILLSHLHYLRE [T56H],-0.123 ± 0.23
6,NMTTNERRVIVPADPTLWSTDHVRQWLEWAVKEYGLPDVNILLFQNIDGKELCKMFKDDFQRLTPSYNADILLSHLHYLRE [T56F],-0.502 ± 0.19
7,NMTTNERRVIVPADPTLWSTDHVRQWLEWAVKEYGLPDVNILLFQNIDGKELRKMTKDDFQRLTPSYNADILLSHLHYLRE [C53R],-0.391 ± 0.072
8,NMTTNERRVIVPADPTLWSTDHVRQWLEWAVKEYGLPDVNILLFQNIDGKELWKMTKDDFQRLTPSYNADILLSHLHYLRE [C53W],-0.561 ± 0.11
9,NMTTNERRVIVPADPTLWSTDHVRQWLEWAVKEYGLPDVNILLFQNIDGKELPKMTKDDFQRLTPSYNADILLSHLHYLRE [C53P],-1.06 ± 0.19
10,NMTTNERRVIVPADPTLWSTDHVRQWLEWAVKEYGLPDVNILLFQNIDGKELNKMTKDDFQRLTPSYNADILLSHLHYLRE [C53N],-0.228 ± 0.072
11,NMTTNERRVIVPADPTLWSTDHVRQWLEWAVKEYGLPDVNILLFQNIDGKELVKMTKDDFQRLTPSYNADILLSHLHYLRE [C53V],-0.034 ± 0.041
12,NMTTNERRVIVPADPTLWSTDHVRQWLEWAVKEYGLPDVNILLFQNIDGKELTKMTKDDFQRLTPSYNADILLSHLHYLRE [C53T],-0.06 ± 0.046
13,NMTTNERRVIVPADPTLWSTDHVRQWLEWAVKEYGLPDVNILLFQNIDGKELQKMTKDDFQRLTPSYNADILLSHLHYLRE [C53Q],-0.269 ± 0.082
14,NMTTNERRVIVPADPTLWSTDHVRQWLEWAVKEYGLPDVNILLFQNIDGKELYKMTKDDFQRLTPSYNADILLSHLHYLRE [C53Y],-0.509 ± 0.12
15,NMTTNERRVIVPADPTLWSTDHVRQWLEWAVKEYGLPDVNILLFQNIDGKELMKMTKDDFQRLTPSYNADILLSHLHYLRE [C53M],0.043 ± 0.058
16,NMTTNERRVIVPADPTLWSTDHVRQWLEWAVKEYGLPDVNILLFQNIDGKELSKMTKDDFQRLTPSYNADILLSHLHYLRE [C53S],-0.15 ± 0.046
17,NMTTNERRVIVPADPTLWSTDHVRQWLEWAVKEYGLPDVNILLFQNIDGKELLKMTKDDFQRLTPSYNADILLSHLHYLRE [C53L],0 ± 0.038

# — the Human Domainome abundance scans (Beltran et al. 2025)
